Data published in PMC8304084, “A Concerted Action of UBA5 C-Terminal Unstructured Regions Is Important for Transfer of Activated UFM1 to UFC1” (International Journal of Molecular Sciences, 2021).

Legend:
Format in all cases: binding
GABARAP = target: T1, GABARAP (Homo sapiens, UniProt O95166); assay: ITC, UBA5 peptides vs GABARAP; details: 25 °C
T1 construct: modified ubiquitin tag (Ub19) with TEV site (N, cleaved yes); made in house; host or cells: E. coli T7 Express
From the text: (§1) To understand how the UBA5 C-terminus participates in the ufmylation cascade, we performed isothermal titration calorimetry (ITC) experiments, in which we titrated UBA5 C-terminal peptides (see Table 1) to the UBA5 AD, UFC1, UFM1 and representative LC3/GABARAP proteins (Figure 2A, Supplementary Figure S2A–D and Table 2).
(§2) All proteins and peptides were expressed in E.Coli T7 Express (New England Biolabs GmbH, Frankfurt, Germany) cells in LB or M9 (to obtain ^15N- and ^13C,^15N-labeled polypeptides) media according to the protocol described in [33, 36]. For protein purification, bacterial cell pellets were resuspended in lysis buffer (50 mM Tris-HCl pH = 7.5, 100 mM NaCl, 5% glycerol, 5 mM PIC (protease inhibitor cocktail)) and lysed via sonication (TT13 Sonotrode, 40% amplitude, for 6 × 1 min with a 0.5/0.5-s pulse). Lysates were centrifuged for 45 min at 17,000× g at 4 °C. Supernatants were loaded onto a His Trap Fast Flow 5 mL column (GE Healthcare, München, Germany) equilibrated in loading buffer (50 mM Tris-HCl pH = 8.0, 250 mM NaCl, 1% glycerol, 20 mM imidazole). The column was washed with loading buffer for 5–10 CV and protein was eluted with elution buffer (50 mM Tris-HCl pH = 8, 250 mM NaCl, 1% glycerol, 400 mM imidazole). Simultaneous TEV cleavage (1 mg TEV protease was added to 100 mg peptides/proteins) and buffer exchange to loading buffer via dialysis was performed over night at 4 °C. After reverse IMAC, proteins were concentrated with conical concentrators (Millipore Merck, Darmstadt, Germany) and loaded on a Superdex 10/60 75 or 200 column (GE Healthcare, München, Germany) for further purification and equilibration with ITC/NMR buffer (25 mM HEPES pH = 7.5, 100 mM NaCl). […] The protein and peptide concentrations were calculated from the UV absorption at 280 nm by Nanodrop spectrophotometer (Thermo Scientific, Langenselbold, Germany).
(§3) All ITC experiments were performed at 25 °C using a VP-ITC microcalorimeter (Malvern Panalytical Ltd., Malvern, UK). […] The ITC data were analyzed based on a “one-site” binding model with MicroCal ITC software implemented in Origin 7.0.

LC3A = target: T2, LC3A (Homo sapiens, UniProt Q9H492); assay: ITC, UBA5 peptides vs LC3A; details: 25 °C
T2 construct: LC3A, residues 4–120; ubiquitin tag Ub3 (vector pETm60_Ub3) (cleaved yes); made in house; host or cells: E. coli T7 Express
From the text: as §1, §2, §3

Ub = assay: Interaction of ubiquitin with UBA5 C-terminal region
Protocol: All ITC experiments were performed at 25 °C using a VP-ITC microcalorimeter (Malvern Panalytical Ltd., Malvern, UK). Peptides in concentration of ~400 µM were titrated into 20–25 µM solutions of corresponding binding partner at a stirring speed of 307 rpm. The raw data were corrected on the dilution heat of peptides obtained in independent experiment (titration of the peptide in syringe into the ITC/NMR buffer in the measuring cell). Pre-titration delay was set to 180 s, interval between titration steps was experimentally adjusted to avoid kinetic contribution to the observed heat effects and set to 200 s. A single ITC profile was collected for each type of interaction. The ITC data were analyzed based on a “one-site” binding model with MicroCal ITC software implemented in Origin 7.0.

UFC1 = target: T3, UFC1 (Homo sapiens, UniProt Q9Y3C8); assay: NMR titration with UFC1; details: [15N,1H] TROSY-HSQC, 25 °C
T3 construct: Full length UFC1, residues 1–167; modified ubiquitin tag (Ub19) with TEV site (N, cleaved yes); made in house; host or cells: E. coli T7 Express
T3 sequence (Q9Y3C8 1-167): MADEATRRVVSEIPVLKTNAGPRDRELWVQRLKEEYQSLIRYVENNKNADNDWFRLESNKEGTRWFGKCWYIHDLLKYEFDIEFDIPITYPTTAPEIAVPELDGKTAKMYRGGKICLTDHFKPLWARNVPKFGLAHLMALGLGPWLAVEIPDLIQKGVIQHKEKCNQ
Protocol: To understand the role of the UBA5 C-terminal region in coordination of the binding events reported above on the molecular level, we performed NMR titration experiments. […] It seems, that these UBA5 residues form additional interactions with UFC1.
All NMR experiments were performed at a sample temperature of 25 °C on Bruker 600, 700, 800, 900, and 950 MHz spectrometers equipped with cryogenic probes, and a 500 MHz spectrometer equipped with a room-temperature triple-resonance probe. All NMR spectra were analyzed with the Sparky 3.114 software (University of California, San Francisco, USA). For NMR titration experiments, the non-labeled UBA5 peptides were titrated to 100 µM ^13C,^15N-labeled UFC1 to a final molar ratio of 1:8 (UFC1:UBA5 peptide). Conversely, 100 µM ^13C,^15N-labeled UBA5 peptides were titrated with non-labeled UFC1 to a final molar ratio 1:4 (UBA5 peptide:UFC1). 2D ^1H-^15N correlation spectra ([^15N,^1H] TROSY-HSQC) were recorded at each titration point. The same types of spectra were recorded to estimate binding of ^13C,^15N-labeled UFC1 (75 µM) to non-labeled UBA5, UBA5~UFM1 and UFM1 at 1:2 molar ratios. CSP values, Δδ, were calculated for each individual amide group using the formula Δδ = [(ΔδN/5)^2 + Δδ^2HN)]^1/2.

GABARAPL2 = target: T4, GABARAPL2 (Homo sapiens, UniProt P60520); assay: NMR titration with GABARAPL2; details: NMR titration of 15N-labeled R1-R2-R3^325–404 with GABARAPL2, 25 °C
T4 construct: modified ubiquitin tag (Ub19) with TEV site (N, cleaved yes); made in house; host or cells: E. coli T7 Express
T4 sequence (P60520 3-116): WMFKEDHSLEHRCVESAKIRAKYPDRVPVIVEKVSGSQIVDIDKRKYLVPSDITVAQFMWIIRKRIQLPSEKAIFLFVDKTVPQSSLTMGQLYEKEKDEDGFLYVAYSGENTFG

T2 sequence (Q9H492 4-120): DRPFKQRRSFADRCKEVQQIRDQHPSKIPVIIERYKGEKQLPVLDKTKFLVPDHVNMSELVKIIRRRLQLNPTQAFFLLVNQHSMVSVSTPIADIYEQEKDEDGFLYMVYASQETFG
T1 sequence (O95166 3-116): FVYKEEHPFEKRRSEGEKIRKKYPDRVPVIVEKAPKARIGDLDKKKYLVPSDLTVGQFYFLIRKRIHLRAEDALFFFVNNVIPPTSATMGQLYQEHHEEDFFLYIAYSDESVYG

In the case of “R1-R2-R3^325–404: UBA5 C-terminal part, residues 325–404 (recombinant, E. coli)”, the ΔG (GABARAP) is reported as -34.1 kJ/mol, the ΔS (GABARAP) is reported as 24.2 cal mol^−1 K^−1 and the “−T*ΔS” value (GABARAP) is reported as -30.2 kJ/mol. For the same substance, the ΔG (LC3A) was -30.9 kJ/mol, the “−T*ΔS” value (LC3A) was -13.1 kJ/mol and the “KA*10^−6” value (LC3A; value is KA × 10^−6, ± = fitting error) was 0.26 ± 0.03 M^−1. The interaction with ubiquitin (Ub) was “no interaction”, the “interaction with UFC1 (in words)” value (UFC1) was “mediated mostly by the UBA5 residues 386–404” and the “interaction with GABARAPL2 (in words)” value (GABARAPL2) was “GABARAPL2 binds first to the LIR/UFIM region, and after saturation of this binding site, GABARAPL2 interacts with additional sites within the UBA5 C-terminus”.
